Measurements published in patent US20220026415A1, “A METHOD FOR SCREENING A THERAPEUTIC AGENT FOR CANCER USING BINDING INHIBITOR OF CYCLIN-DEPENDENT KINASE 1 (CDK1)-CYCLIN B1 AND RETINOIC ACID RECEPTOR RESPONDER 1 (RARRES1) GENE KNOCKOUT ANIMAL MODEL” (NATIONAL CANCER CENTER, priority 2018, published 2022).

Tested on: HEK293 cells
Experiment: Cell cycle distribution after release from double thymidine block, flow cytometry
Assay type: cell-based
Description: In the case of a double thymidine block (DTB) synchronized at the G1/S boundary, HEK293 cells were incubated with 2 mM thymidine for 16 hours and maintained in a normal medium for 10 hours, and then 2 mM thymidine was further added thereto for 16 hours.
For analysis of cell cycles or sub-G1 DNA contents, cells were immobilized with 80% ice-cold ethanol, and stored at 4° C. The cells were stained with PBS containing 50 ug/ml of propidium iodide (PI) and 100 ug/ml of RNase A at 37° C. for 30 minutes. DNA content was analyzed by FACS Calibur flow cytometry and the results thereof were analyzed using Cellquest software (Becton-Dickinson Immunocytometry Systems, San Diego, Calif.) and Modfit LT 3.3 software. At least 10,000 cells were analyzed per sample.
To evaluate whether the reduced cell growth observed in RARRES1-overexpressing cells was due to altered cell cycle progression, HEK293 cells were transfected with green fluorescent protein (GFP) tagged-RARRES1 or -empty vector (Ctrl) according to the method of Example 1-1, and the cells were observed by live cell imaging according to Example 1-6. From now on, all data shown was regarded as isoform 1 since there was no difference between the two isoforms of RARRES1 in the above experiments, and it was named ‘RARRES1.’ In HEK293 cells transfected with a GFP control (Ctrl) according to the method of Example 1-1, the cells underwent normal cell cycle progression. A cell entered into mitosis (round shape) within 1 hour, and was separated into two daughter cells within at least 2.5 hours (see FIG. 5A, top panel). […] To confirm mitotic arrest induced by RARRES1 overexpression, GFP-control or GFP-RARRES1-overexpressing 293 cells and 293 cells transfected with a red fluorescent protein (RFP) lentivirus used to label GFP non-transfected cell, according to Example 1-3 were co-cultured, and changes in the number of fluorescence-expressing cells (see FIG. 5B) were monitored. […] Under co-culture conditions of GFP-control coupled with RFP virus-transfected cells, the numbers of both fluorescence-expressing cells were increased over time. […]

B1: RARRES1: RARRES1 isoform 1 overexpressed in HEK293 cells by transfection with an expression vector (protein)
chain: MQPRRQRLPAPWSGPRGPRPTAPLLALLLLLAPVAAPAGSGDPDDPGQPQDAGVPRRLLQQAARAALHFFNFRSGSPSALRVLAEVQEGRAWINPKEGCKVHVVFSTERYNPESLLQEGEGRLGKCSARVFFKNQKPRPTINVTCTRLIEKKKRQQEDYLLYKQMKQLKNPLEIVSIPDNHGHIDPSLRLIWDLAFLGSSYVMWEMTTQVSHYYLAQLTSVRQWKTNDDTIDFDYTVLLHELSTQEIIPCRIHLVWYPGKPLKVKYHCQELQTPEEASGTEEGSAVVPTELSNF
B1 was tested. Which “cells in the G2/M phases” value (4 hours after release from DTB, control 21.38%) did it give?
The value was 29.85%.

What about the “cells in the G2/M phases” value (6 hours after release from DTB, control 77.41%) of the same molecule?
The value was 80.91%.

What about the “cells in the G2/M phases” value (8 hours after release from DTB, control 45.47%) of the same molecule?
The value was 54.46%.
